The source of these data is patent US20210230287A1 (WUXI BIOLOGICS SHANGHAI, published 2021).

The Kd is a measure of binding affinity in units of concentration. Lower therefore signals higher affinity. The koff is the first-order rate constant of dissociation. Broadly, the kon is the rate constant with which the complex forms. Read a low kon as slow association. As a reminder, the EC50 (read off the curve) is the concentration that produces a half-maximal response. High values mean lower potency in that assay, low ones higher potency in that assay.

Assay [1] has as its target T1, mouse 4-1BB extracellular domain, His tag (mouse, UniProt P20334 24-187).
T1 construct: extracellular domain; also called mPro1.ECD.His; not shown: His tag
T1 sequence (looked up): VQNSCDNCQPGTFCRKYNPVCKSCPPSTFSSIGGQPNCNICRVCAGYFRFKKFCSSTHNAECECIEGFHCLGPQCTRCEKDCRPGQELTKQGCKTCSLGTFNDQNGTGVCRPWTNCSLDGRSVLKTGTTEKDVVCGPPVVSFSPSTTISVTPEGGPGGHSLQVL
Briefly: SPR, Biacore T200; antibody captured on Protein G chip, mouse 4-1BB ECD.His as analyte. The method, then:
(§1) Antibodies were characterized for affinity and binding kinetics to human, cynomolgus and mouse 4-1BB by SPR assay using Biacore T200 (GE). Protein G was pre-immobilized to a sensor chip (CMS), and anti-4-1BB antibodies were captured when injected to the chip. Various concentrations of human 4-1BB and running buffer were flowed through the sensor chip for an association phase, and followed by dissociation. The association and dissociation curve was analyzed using Biacore T200 Evaluation software Version 2.0.

Assay [2] concerns the target T2, cynomolgus 4-1BB extracellular domain, His tag (cynomolgus, UniProt A9YYE7 24-186).
T2 construct: extracellular domain; also called cynoPro1.ECD.His; ACRO-41B-C52H4; not shown: His tag
As to the kind of experiment: SPR, Biacore T200; antibody captured on Protein G chip, cynomolgus 4-1BB ECD.His as analyte. The method, then: as §1

Assay [3] concerns the target T3, mouse 4-1BB, full-length, on cells (mouse, UniProt P20334 24-256).
T3 construct: whole, on cells; also called murine 4-1BB expressing CHO-K1 cells
Briefly: flow cytometry on murine 4-1BB-expressing CHO-K1 cells, PE goat anti-human IgG Fc, MFI. The method, then: Murine 4-1BB-expressing CHO-K1 cells were transferred into 96-well U-bottom plates at a density of 1×10⁵ cells/well. Testing antibodies were serially diluted in PBS containing 1% BSA, and incubated with cells at 4° C. for 1 h. After washing, the secondary antibody, PE labeled Goat anti-human IgG Fc Fragment (Jackson ImmunoResearch), was applied and incubated with cells at 4° C. in the dark for 1 h. The cells were then washed and resuspended in PBS and then analyzed by flow cytometer (BD).
Background: A flow cytometer gives signals particle by particle.

In assay [4] the target is T4, OX40 (human, UniProt P43489 29-216, limits assumed).
T4 sequence (looked up): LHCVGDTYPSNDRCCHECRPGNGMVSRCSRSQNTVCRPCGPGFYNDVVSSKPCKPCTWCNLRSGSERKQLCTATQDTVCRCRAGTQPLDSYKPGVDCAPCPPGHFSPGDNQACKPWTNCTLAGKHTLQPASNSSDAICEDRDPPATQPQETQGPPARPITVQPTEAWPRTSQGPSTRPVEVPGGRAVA
As to the kind of experiment: ELISA on plate-coated antigen, HRP goat anti-human IgG Fc, OD450-OD540; antibody concentration not given. The method, then: (§2) Cross-reactivity to TNFR family members OX40, CD40 and GITR was determined by ELISA. Plates (Nunc) were coated with OX40, CD40 or GITR overnight at 4° C. After blocking and washing, anti-4-1BB antibodies were added to the plates and incubated at room temperature for 1 h. The plates were then washed and subsequently incubated with secondary antibody, HRP Conjugated Goat anti-human IgG Fc Fragment antibody (Bethyl), for 45 min. After washing, TMB substrate was added and the color reaction was stopped by 2M HCl. The absorbance at 450 and 540 nm were read using a microplate reader (Molecular Device).
In general terms: ELISA stands for enzyme-linked immunosorbent assay.

The target of assay [5] is CD40 (human, UniProt P25942 21-193, limits assumed). The assay is described as above. The method, then:
as §2

In assay [6] the target is T5, GITR (human, UniProt Q9Y5U5 26-161, limits assumed).
T5 sequence (looked up): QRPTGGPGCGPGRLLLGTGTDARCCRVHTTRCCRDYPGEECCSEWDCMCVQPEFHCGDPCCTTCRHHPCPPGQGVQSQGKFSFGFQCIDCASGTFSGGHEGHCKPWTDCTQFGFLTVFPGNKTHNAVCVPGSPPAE
The description is as above. The method, then: as §2

Assay [7] has as its target T6, human 4-1BB extracellular domain, His tag (human, UniProt Q07011 24-186).
T6 construct: also called hPro1.ECD.His; not shown: C-terminal His tag
Briefly: SPR, Biacore T200; antibody captured on Protein G chip, 4-1BB ECD.His as analyte. The method, then: as §1
(SPR reads the build-up and loss of mass on a sensor chip optically.)

In assay [8] the target is T7, human 4-1BB, full-length, on cells (human, UniProt Q07011 24-255).
T7 construct: also called human 4-1BB expressing CHO-K1 cells; cell surface 4-1BB
Briefly: flow cytometry on human 4-1BB-expressing CHO-K1 cells, PE goat anti-human IgG Fc, MFI. The method, then: Human 4-1BB-expressing CHO-K1 cells were transferred into 96-well U-bottom plates at a density of 1×10⁵ cells/well. […] After washing, the secondary antibody, PE labeled Goat anti-human IgG Fc Fragment (Jackson ImmunoResearch), was applied and incubated with cells at 4° C. in the dark for 1 h. The cells were then washed and re-suspended in PBS and then analyzed by a flow cytometer (BD).

Assay [9] concerns the target human 4-1BB protein (coated on ELISA plates) (human, UniProt Q07011 24-186, limits assumed). Briefly: competition ELISA on plate-coated human 4-1BB; competitor: biotinylated BMK4, detected with streptavidin-HRP, OD450-OD540. The method, then:
Plates were pre-coated with human 4-1BB protein at 4° C. overnight. After blocking, various concentrations of testing antibodies were pre-mixed with biotinylated BMK antibodies and added to the plates. The plates were incubated at ambient temperature for 1 hour. The binding of the BMK antibodies to human 4-1BB was detected by streptavidin-HRP. The color was developed by dispensing TMB substrate, and then stopped by 2N HCl. The absorbance was read at 450 nm and […] using a microplate spectrophotometer.

B1: 2.27.16-u1-1-hIgG1L (antibody, V domains shown)
VH: QEQLQESGPGLVKPSQTLSLTCTVSGGSINSQGYYWSWIRQHPGKGLEWIGYIYDSGSAYYNPSLERRVAISLDTSKNQFSLNLNSVTVADTAVYYCARIVAAGRIDPWGQGTLVTVSS
VL: SYVLTQPPSVSVAPGQTARMTCGGDNIGIKIVHWYQQKAGQAPVLVVYDDNDRPSGIPDRFSGSNSGNTATLTISRVAAGDEADYYCQVWDRRSDHVVFGGGTKLTVL
notes: Fully human antibody
For the molecule B1, the Kd worked out at 8.49 nM in assay [1] and 0.142 nM in assay [2]. In addition, the koff in assay [1] was determined as 0.00134 s⁻¹; in [2] it was 3.07e-05 s⁻¹. In addition, the kon in assay [1] amounted to 158000 M⁻¹ s⁻¹; in assay [2], 217000 M⁻¹ s⁻¹. In addition, in [3], the half-maximal effective concentration (EC50 (read off the curve)) was ~0.9 nM. Also, the binding result in assay [4], in [5] and in assay [6] was “no binding” each time.

B2: 2.27.16-u1-1-hIgG4L (antibody, V domains shown)
VH: QEQLQESGPGLVKPSQTLSLTCTVSGGSINSQGYYWSWIRQHPGKGLEWIGYIYDSGSAYYNPSLERRVAISLDTSKNQFSLNLNSVTVADTAVYYCARIVAAGRIDPWGQGTLVTVSS
VL: SYVLTQPPSVSVAPGQTARMTCGGDNIGIKIVHWYQQKAGQAPVLVVYDDNDRPSGIPDRFSGSNSGNTATLTISRVAAGDEADYYCQVWDRRSDHVVFGGGTKLTVL
In the case of B2, the Kd amounted to 6.27 nM in [1] and 0.439 nM in assay [2]. For the same molecule, the koff in [1] was determined as 0.00136 s⁻¹; in assay [2] it was 0.000101 s⁻¹. Further, the kon in [1] is 217000 M⁻¹ s⁻¹; in [2] it was 230000 M⁻¹ s⁻¹. The “EC50 (read off the curve)” value in [3] is ~0.8 nM. Also, the binding result in assay [4], in [5] and in [6] was “no binding” in each case.

B3: 2.19.8-u1-3-hIgG1L (antibody, V domains shown)
VH: QVQLVESGGGLVKPGGSLRLSCAASGFTFSDYFMSWIRQAPGKGLEWVSYISNAGSSKYYADSVKGRFTISRDNAKNSLYLQMNSLRAEDTAVYYCVRDPYSGSYSGWFDPWGQGTLVTVSS
VL: SYDLTQPPSVSVSPGQTASITCSGDDLGDKYTSWYQQKPGQSPVLVVYQDHKRPSGIPERFSGSNSGNTATLTISGTQAMDEADYYCQAWDKGIVVFGGGTKLTVL
notes: Fully human antibody
In the case of B3, the Kd in assay [7] came to 0.0257 nM; in assay [1] it was 26.1 nM; in [2], 0.0164 nM. Moreover, the figures for the koff in [7], in [1] and in assay [2] were 6.48e-05 s⁻¹, 0.975 s⁻¹ and 2.96e-05 s⁻¹, respectively. The figures for the kon in assay [7], in assay [1] and in assay [2] were 2.52e+06 M⁻¹ s⁻¹, 3.73e+07 M⁻¹ s⁻¹ and 1.81e+06 M⁻¹ s⁻¹, respectively. In addition, in [8], the “EC50 (read off the curve)” value is ~0.07 nM. In addition, the binding result in assay [4], in assay [5] and in assay [6] was “no binding” throughout. Further, the “IC50 (read off the curve)” value in assay [9] is ~0.9 nM.

B4: 2.19.8-u1-3-hIgG4L (antibody, V domains shown)
VH: QVQLVESGGGLVKPGGSLRLSCAASGFTFSDYFMSWIRQAPGKGLEWVSYISNAGSSKYYADSVKGRFTISRDNAKNSLYLQMNSLRAEDTAVYYCVRDPYSGSYSGWFDPWGQGTLVTVSS
VL: SYDLTQPPSVSVSPGQTASITCSGDDLGDKYTSWYQQKPGQSPVLVVYQDHKRPSGIPERFSGSNSGNTATLTISGTQAMDEADYYCQAWDKGIVVFGGGTKLTVL
With B4, the Kd in assay [7] was determined as 0.0177 nM; in assay [1], 18.4 nM; in [2], 0.0158 nM. For the same molecule, the koff in [7] amounted to 3.74e-05 s⁻¹; in assay [1], 0.215 s⁻¹; in [2], 2.93e-05 s⁻¹. In addition, the kon in assay [7] stood at 2.11e+06 M⁻¹ s⁻¹; in [1], 1.17e+07 M⁻¹ s⁻¹; in assay [2], 1.86e+06 M⁻¹ s⁻¹. The “EC50 (read off the curve)” value in [8] was ~0.06 nM. Further, the binding result in [4], in [5] and in [6] was “no binding” each time. Besides, in assay [9], the “IC50 (read off the curve)” value is ~1 nM.
